Patent publication WO2019006280A1 (dated 2019)

Molecular target: T1, cell-surface CD33 on the CD33-positive AML cell line MV4-11 (UniProt P20138 18-364)
T1 construct: whole, on cells; Endogenous CD33 of the MV4-11 cell line; also called cell-surface expressed CD33; CD33-postive MV4-11 cells
Test: flow cytometry on MV4-11 cells, binder at 10 ug/ml, PE anti-flag

T1 sequence (P20138 18-364 limits assumed): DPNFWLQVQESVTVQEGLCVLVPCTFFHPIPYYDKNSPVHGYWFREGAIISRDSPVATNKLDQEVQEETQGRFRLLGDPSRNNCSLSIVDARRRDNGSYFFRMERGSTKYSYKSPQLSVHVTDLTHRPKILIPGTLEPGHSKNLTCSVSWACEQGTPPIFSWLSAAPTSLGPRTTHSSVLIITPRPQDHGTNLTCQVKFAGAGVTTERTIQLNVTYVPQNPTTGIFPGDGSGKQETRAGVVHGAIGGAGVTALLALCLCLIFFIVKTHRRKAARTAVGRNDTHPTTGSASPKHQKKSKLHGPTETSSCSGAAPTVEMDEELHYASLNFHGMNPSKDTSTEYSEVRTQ

binding result: binds
B1: ml033-2 VH domain antibody (VHH)
VHH: EVQLVESGGGLVQPGGSLRLSCAASGFTFSSYGMSWVRQAPRKGLEWIGEINHSGSTNYNPSLKSRVTISRDNSKNTLYLQMNSLRAEDTATYYCARPLNYYYYYMDVWGKGTTVTVSS
notes: also called single domain antibody ml 033-2; m1033-2; not shown: His and Flag tags
